# Laboratory results as given in ChEMBL document CHEMBL1671727, “Expression, purification, and characterization of Aspergillus fumigatus sterol 14-alpha demethylase (CYP51) isoenzymes A and B” (Antimicrob Agents Chemother, 2010).
# B1: Lanosterol 14-alpha demethylase (Candida albicans SC5314) (protein)
# chain: MAIVETVIDGINYFLSLSVTQQISILLGVPFVYNLVWQYLYSLRKDRAPLVFYWIPWFGSAASYGQQPYEFFESCRQKYGDVFSFMLLGKIMTVYLGPKGHEFVFNAKLSDVSAEDAYKHLTTPVFGKGVIYDCPNSRLMEQKKFAKFALTTDSFKRYVPKIREEILNYFVTDESFKLKEKTHGVANVMKTQPEITIFTASRSLFGDEMRRIFDRSFAQLYSDLDKGFTPINFVFPNLPLPHYWRRDAAQKKISATYMKEIKSRRERGDIDPNRDLIDSLLIHSTYKDGVKMTDQEIANLLIGILMGGQHTSASTSAWFLLHLGEKPHLQDVIYQEVVELLKEKGGDLNDLTYEDLQKLPSVNNTIKETLRMHMPLHSIFRKVTNPLRIPETNYIVPKGHYVLVSPGYAHTSERYFDNPEDFDPTRWDTAAAKANSVSFNSSDEVDYGFGKVSKGVSSPYLPFGGGRHRCIGEQFAYVQLGTILTTFVYNLRWTIDGYKVPDPDYSSMVVLPTEPAEIIWEKRETCMF
# Substrate: CC(C)=CCC[C@@H](C)[C@H]1CC[C@@]2(C)C3=C(CC[C@]12C)[C@@]1(C)CC[C@H](O)C(C)(C)[C@@H]1CC3
# Test: Activity of Candida albicans CYP51
protein,measurement,value
B1,Km,7.4 µM
